Results reported in patent publication KR20230022334A (dated 2023).

Assays:
[1] = biological target: T1, API5(Apoptosis inhibitor protein 5) 단백질, Expi293 세포에서 일시발현 후 정제 (human, UniProt Q9BZZ5-2 1-504); assay: SPR, Biacore T200, 3F2 serially diluted 3.125-100 nM (7 points including 0 nM)
T1 construct: also called rhAPI5; AAC-11
T1 sequence: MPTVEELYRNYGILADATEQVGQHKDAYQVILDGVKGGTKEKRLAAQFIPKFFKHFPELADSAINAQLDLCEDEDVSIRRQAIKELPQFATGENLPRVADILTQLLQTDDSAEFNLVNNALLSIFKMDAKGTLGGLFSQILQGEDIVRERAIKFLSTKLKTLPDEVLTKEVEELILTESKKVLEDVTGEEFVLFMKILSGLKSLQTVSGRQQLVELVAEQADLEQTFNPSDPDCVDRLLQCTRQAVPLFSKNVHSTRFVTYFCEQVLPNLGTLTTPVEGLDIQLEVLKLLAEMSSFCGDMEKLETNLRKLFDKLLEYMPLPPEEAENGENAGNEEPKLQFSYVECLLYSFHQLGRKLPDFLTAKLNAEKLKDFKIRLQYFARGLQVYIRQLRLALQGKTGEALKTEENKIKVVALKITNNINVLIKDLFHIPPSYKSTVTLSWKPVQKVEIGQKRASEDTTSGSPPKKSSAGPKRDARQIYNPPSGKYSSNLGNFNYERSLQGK

[2] = biological target: T1, API5(Apoptosis inhibitor protein 5) …; assay: ELISA, 3F2 serially diluted 3.125-200 nM (8 points including 0 nM)

B1: 3F2 항체 (API5 표적 인간 항체 3F2) (antibody, V domains shown)
VH: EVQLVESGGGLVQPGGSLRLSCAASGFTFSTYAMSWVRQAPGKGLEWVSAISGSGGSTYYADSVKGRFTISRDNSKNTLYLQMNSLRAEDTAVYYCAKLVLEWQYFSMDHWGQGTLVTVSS
VL: DIQMTQSPSSLSASVGDRVTITCRASQSISRYLNWYQQKPGKAPKLLIYAASTLQSGVPSRFSGSGSGTDFTLTISSLQPEDFATYYCQQSYSFPWTFGQGTKVEIK
notes: Purified 3F2 antibody as used in the ELISA and SPR; IgG is used as the control in later experiments; also called API5 항체 3F2; 3F2 antibody
[1]
  Kd: 4.62 nM
[2]
  Kd: 1.2 nM
